Source: US8290713 (LONZA BIOLOGICS, dated 2012)
Non-standard residues stand in square brackets, D forms with d.

B1: ZP-0161 (peptide)
peptide: Ac-[dH][dH][dV][dK][dV][dA]-NH2
SMILES: CC(=O)N[C@H](Cc1c[nH]cn1)C(=O)N[C@H](Cc1c[nH]cn1)C(=O)N[C@@H](C(=O)N[C@H](CCCCN)C(=O)N[C@@H](C(=O)N[C@H](C)C(N)=O)C(C)C)C(C)C
B2: ZP-0168 (peptide)
peptide: Ac-[dH][dH][dV][dI][dV][dP]-NH2
SMILES: CC[C@@H](C)[C@@H](NC(=O)[C@H](NC(=O)[C@@H](Cc1c[nH]cn1)NC(=O)[C@@H](Cc1c[nH]cn1)NC(C)=O)C(C)C)C(=O)N[C@@H](C(=O)N1CCC[C@@H]1C(N)=O)C(C)C
B3: ZP-0169 (peptide)
peptide: Ac-[dH][dH][dV][dI][dV][dV]-NH2
SMILES: CC[C@@H](C)[C@@H](NC(=O)[C@H](NC(=O)[C@@H](Cc1c[nH]cn1)NC(=O)[C@@H](Cc1c[nH]cn1)NC(C)=O)C(C)C)C(=O)N[C@@H](C(=O)N[C@@H](C(N)=O)C(C)C)C(C)C
B4: ZP-0162 (peptide)
peptide: Ac-[dH][dH][dV][dE][dV][dA]-NH2
SMILES: CC(=O)N[C@H](Cc1c[nH]cn1)C(=O)N[C@H](Cc1c[nH]cn1)C(=O)N[C@@H](C(=O)N[C@H](CCC(=O)O)C(=O)N[C@@H](C(=O)N[C@H](C)C(N)=O)C(C)C)C(C)C
B5: ZP-0171 (peptide)
peptide: Ac-[dH][dH][dV][dI][dV][dY]-NH2
SMILES: CC[C@@H](C)[C@@H](NC(=O)[C@H](NC(=O)[C@@H](Cc1c[nH]cn1)NC(=O)[C@@H](Cc1c[nH]cn1)NC(C)=O)C(C)C)C(=O)N[C@@H](C(=O)N[C@H](Cc1ccc(O)cc1)C(N)=O)C(C)C
B6: ZP-0172 (peptide)
peptide: Ac-[dH][dH][dV][dI][dV][dW]-NH2
SMILES: CC[C@@H](C)[C@@H](NC(=O)[C@H](NC(=O)[C@@H](Cc1c[nH]cn1)NC(=O)[C@@H](Cc1c[nH]cn1)NC(C)=O)C(C)C)C(=O)N[C@@H](C(=O)N[C@H](Cc1c[nH]c2ccccc12)C(N)=O)C(C)C
B7: ZP-0158 (peptide)
peptide: Ac-[dH][dH][dV][dI][dV][dA]-NH2
SMILES: CC[C@@H](C)[C@@H](NC(=O)[C@H](NC(=O)[C@@H](Cc1c[nH]cn1)NC(=O)[C@@H](Cc1c[nH]cn1)NC(C)=O)C(C)C)C(=O)N[C@@H](C(=O)N[C@H](C)C(N)=O)C(C)C
B8: ZP-0170 (peptide)
peptide: Ac-[dH][dH][dV][dI][dV][dT]-NH2
SMILES: CC[C@@H](C)[C@@H](NC(=O)[C@H](NC(=O)[C@@H](Cc1c[nH]cn1)NC(=O)[C@@H](Cc1c[nH]cn1)NC(C)=O)C(C)C)C(=O)N[C@@H](C(=O)N[C@@H](C(N)=O)[C@H](C)O)C(C)C
B9: ZP-0175 (peptide)
peptide: Ac-[dH][dH][dT][dI][dV][dV]-NH2
SMILES: CC[C@@H](C)[C@@H](NC(=O)[C@H](NC(=O)[C@@H](Cc1c[nH]cn1)NC(=O)[C@@H](Cc1c[nH]cn1)NC(C)=O)[C@H](C)O)C(=O)N[C@@H](C(=O)N[C@@H](C(N)=O)C(C)C)C(C)C

Target: α-synuclein (UniProt P37840 1-140)
Assay: cell-based or functional assay
Further: test concentration or dose not given here.

| % decrease in ThT fluorescence | % decrease in rate of aggregation | % increase in Lag phase | Binder |
| --- | --- | --- | --- |
| -5.9% | 2.3% | 19.7% | B1 |
| -8.6% | -5.4% | 29.8% | B2 |
| -0.5% | -13.3% | 26.1% | B3 |
| 6.3% | 6.6% | 33.4% | B4 |
| 13.9% | 13.2% | 43.6% | B5 |
| -1.7% | 6.9% | 28.1% | B6 |
| 15.1% | 18.4% | 32.5% | B7 |
| 24.5% | 29.3% | 29.4% | B8 |
| 21.9% | 16.8% | 89.7% | B9 |
